Numbering of substitutions follows the chain as printed. Names may count otherwise.
B1: 4C_35 (mutated huLFB112 phage-scFv clone) (scFv, part only; not given: scFv linker and phage partner, V domains shown, not shown: another chain or arm of the molecule; large carriers; small tags and cut ends)
VH: QVQLVQSGAEVKKPGASVKVSCKASGYTFTSYHIHWVRQAPGQRPEWMGWIYPGDDSTKYSQKFQGRVTITRDTSASTAYMELSSLRSEDTAVYYCTRGDRFAYWGQGTLVTVSS
VL: DIQMTQSPSTLSASVGDRVTITCRASSSVRYIAWYQQKPGKAPKLLIYSTSSLKSGVPSRFSGSGSGTEFTLTISSLQPDDFATYYCLQWSSYPWTFGGGTKVEIK
B2: 5B_81 (mutated huLFB112 phage-scFv clone) (scFv, part only; not given: scFv linker and phage partner, V domains shown, not shown: another chain or arm of the molecule; large carriers; small tags and cut ends)
VH: B1 VH
VL: B1 VL with K54E
B3: 4F_196 (mutated huLFB112 phage-scFv clone) (scFv, part only; not given: scFv linker and phage partner, V domains shown, not shown: another chain or arm of the molecule; large carriers; small tags and cut ends)
VH: B1 VH with Q3E, P45L, Q62R, E89D
VL: B1 VL with K54E
B4: 3C_23 (mutated huLFB112 phage-scFv clone) (scFv, part only; not given: scFv linker and phage partner, V domains shown, not shown: another chain or arm of the molecule; large carriers; small tags and cut ends)
VH: B1 VH with Q3R, P45L
VL: B1 VL with I47T, S49P, K54E
B5: mutated humanized 12G4 antibody 3C-23K produced in CHO (antibody, human IgG1, kappa, V domains shown)
VH: B1 VH with Q3R, P45L
VL: DIQMTQSPSTLSASVGDRVTITCRASSSVRYIAWYQQKPGKAPKLLTYPTSSLKSGVPSRFSGSGSGTEFTLTISSLQPDDFATYYCLQWSSYPWTFGGGTKVEIKR
notes: also called 3C_23K CHO; 3C-23K-CHO
B6: unmutated humanized 12G4 monoclonal antibody (antibody, human IgG1, kappa, V domains shown)
VH: B1 VH with P45L
VL: B5 VL with T47I, P49S, K54E
notes: Variable regions without leader joined to the constant regions; also called huLFB112; 632 07 107 Anti AMHRII hum 1st
B7: mutated humanized 12G4 antibody 3C-23 produced in CHO (antibody, human IgG1, kappa, V domains shown)
VH: B1 VH with Q3R, P45L
VL: B5 VL with K54E
notes: also called 3C_23 CHO
B8: 5A_66 (mutated huLFB112 phage-scFv clone) (scFv, V domains shown)
VH: B1 VH with P45L, V68M
VL: B1 VL with K54E, F82S
notes: scFv on M13 phage, tested as culture supernatant; not shown: The 15-residue scFv peptide linker (positions 116-130 of the scFv numbering) and the M13 phage display partner
B9: 6B_76 (mutated huLFB112 phage-scFv clone) (scFv, V domains shown)
VH: B1 VH with A40V, P45L
VL: B1 VL with S49P, K54E
notes: scFv on M13 phage, tested as culture supernatant; not shown: The 15-residue scFv linker (positions 116-130 of the scFv numbering) and the M13 phage display partner
B10: 4F_169 (mutated huLFB112 phage-scFv clone) (scFv, V domains shown)
VH: B1 VH with Q6E, P45L, T58A
VL: B1 VL with K54E
notes: scFv on M13 phage, tested as culture supernatant; Q6E: TAG codon suppressed, translated to E in E. coli XL1-blue; not shown: The 15-residue scFv peptide linker (positions 116-130 of the scFv numbering) and the M13 phage display partner
B11: 6A_80 (mutated huLFB112 phage-scFv clone) (scFv, V domains shown)
VH: B1 VH with A24V, P45L, Q62E
VL: B1 VL with K54E
notes: scFv on M13 phage, tested as culture supernatant; Q62E: TAG codon suppressed, translated to E in E. coli XL1-blue; not shown: The 15-residue scFv linker (positions 116-130 of the scFv numbering) and the M13 phage display partner
B12: 6B_87 (mutated huLFB112 phage-scFv clone) (scFv, V domains shown)
VH: B1 VH with Q1E, A24V, P45L
VL: B1 VL with K54E
notes: scFv on M13 phage, tested as culture supernatant; Q1E: TAG codon suppressed, translated to E in E. coli XL1-blue; not shown: The 15-residue scFv peptide linker (positions 116-130 of the scFv numbering) and the M13 phage display partner
B13: 3D_74 (mutated huLFB112 phage-scFv clone) (scFv, V domains shown)
VH: B1 VH with P45L
VL: B1 VL with S28P, K54E
notes: as for B8
B14: 6B_14 (mutated huLFB112 phage-scFv clone) (scFv, V domains shown)
VH: B1 VH with S31G, Q39E, P45L
VL: B1 VL with K54E
notes: scFv on M13 phage, tested as culture supernatant; Q39E: TAG codon suppressed, translated to E in E. coli XL1-blue; not shown: The 15-residue scFv peptide linker (positions 116-130 of the scFv numbering) and the M13 phage display partner
B15: 5A_28 (mutated huLFB112 phage-scFv clone) (scFv, V domains shown)
VH: B1 VH with P45L
VL: B1 VL with Y48H, S49P, K54E
notes: as for B9
B16: 4E_153 (mutated huLFB112 phage-scFv clone) (scFv, V domains shown)
VH: B1 VH with P45L, D56N, I70N, F102S
VL: B1 VL with K54E
notes: as for B8
B17: 4D_91 (mutated huLFB112 phage-scFv clone) (scFv, V domains shown)
VH: B1 VH with Q1E, V11A, P45L
VL: B1 VL with K54E
notes: as for B12
B18: mutated humanized 12G4 antibody 6B-78 produced in CHO (antibody, human IgG1, kappa, V domains shown)
VH: B1 VH with P45L
VL: B5 VL with T47I, P49S
notes: also called 6B_78 CHO
B19: 5B_18 (mutated huLFB112 phage-scFv clone) (scFv, V domains shown)
VH: B1 VH with Q3E, A9T, P45L, A103T
VL: B1 VL with K54E
notes: scFv on M13 phage, tested as culture supernatant; Q3E: TAG codon suppressed, translated to E in E. coli XL1-blue; not shown: The 15-residue scFv peptide linker (positions 116-130 of the scFv numbering) and the M13 phage display partner

Tests used:
[1] = biological target: T1, AMHR-II/Fc fusion protein (human, UniProt Q16671 18-149, limits assumed); assay: phage-scFv ELISA on AMHRII-Fc; mean of at least four values, standard deviation in parentheses
T1 construct: also called AMHR-II recombinant receptor expressed in the form of fusion protein with a region Fc; recombinant target; not shown: Fc region
Procedure: The secondary screening consists of analysing the clones selected at the end of the primary screening individually. For this, the 113 unique mutated clones were transferred to a culture plate (96 well-1.2 ml).
After production of the phage particles, the culture supernatants containing the phages-scFv were used for carrying out an ELISA binding assay. The binding of the mutated clones was evaluated at two dilutions (½ and ¼ of the supernatants containing the scFv-phages). The murine clones (mLFB112) and humanized clones (huLFB112) constructed under the scFv-phages format were used as references on each of the assay plates. Each of the mutated clones was tested at least twice.

[2] = biological target: T1, AMHR-II/Fc fusion protein; assay: SPR, BIAcore X100; ratio against the chimeric 12G4
Procedure: (§1) The affinity of the antibodies for their antigen, AMHR-II, is determined by the SPR (Surface Plasmon Resonance) technique on BIACore X100 (BIACore, GE Healthcare). The AMHR-II recombinant receptor, expressed in the form of fusion protein with a region Fc, is immobilized by covalent coupling between its amine functions and the carboxyl groups of dextran activated in succinimide esters, present on the surface of the type CM5 sensor chip. The COOH groups of the sensor chip are activated for 7 minutes with EDC/NHS mixture (0.1 M of N-hydroxysuccinimide and 0.1 M of 3-(N,N-dimethylamino)propyl-N-ethylcarbodiimide) at a flow of 10 μl/min then the AMHR-II/Fc fusion protein, diluted to 5 μg/ml in 10 mM sodium acetate buffer, pH 4.0, is injected at […] on track 2 of the sensor chip so as to reach 300 RU. The ester groups that have not reacted with the amines of the fusion protein are deactivated by injection of a solution of ethanolamine-HCl 1M, pH 8.5 for 7 min at a flow of 10 μl:min. Track 1, serving as negative control, was activated and deactivated like track 2.
(§2) All the measurements are carried out at 25° C. The antibodies to be analysed are diluted in HBS-EP running buffer (BIACore, GE Healthcare) at concentrations from 6.25 to 3333 nM and injected on the sensor chip for 2 min at a flow of 30 μl/min. The dissociation step is monitored for 10 min and then the surface is regenerated by injection of 10 mM glycine buffer, pH 1.5 for 30 s at 10 μl/min.
(§3) The sensorgrams obtained are analysed using the 1:2 kinetic model of the BIAevaluation 3.1 software.

[3] = biological target: T1, AMHR-II/Fc fusion protein; assay: SPR, BIAcore X100; AMHR-II/Fc immobilised on CM5 chip, antibody injected; 25 C
Procedure: as §1, §2, §3

[4] = biological target: T2, AMHRII receptor expressed on cells (cov434-AMHRII, Asc 1, META 2815) (human, UniProt Q16671 18-573); assay: cell-based or functional assay
T2 sequence (looked up): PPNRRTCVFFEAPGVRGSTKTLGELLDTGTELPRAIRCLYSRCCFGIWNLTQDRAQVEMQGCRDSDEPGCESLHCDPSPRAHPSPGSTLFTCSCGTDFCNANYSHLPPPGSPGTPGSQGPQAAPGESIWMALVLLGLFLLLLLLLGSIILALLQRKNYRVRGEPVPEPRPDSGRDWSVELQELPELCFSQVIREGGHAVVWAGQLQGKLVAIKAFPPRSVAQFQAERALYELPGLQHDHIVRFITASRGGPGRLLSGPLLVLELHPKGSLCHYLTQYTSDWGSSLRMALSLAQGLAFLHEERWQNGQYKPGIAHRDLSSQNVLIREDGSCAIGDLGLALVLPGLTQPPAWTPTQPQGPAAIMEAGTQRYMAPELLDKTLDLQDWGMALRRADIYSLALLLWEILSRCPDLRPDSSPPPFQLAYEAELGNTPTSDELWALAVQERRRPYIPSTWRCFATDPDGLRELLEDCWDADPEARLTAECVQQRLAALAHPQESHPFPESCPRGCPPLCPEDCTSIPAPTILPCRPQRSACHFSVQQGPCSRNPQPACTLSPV

[5] = biological target: T3, Epitope peptide GGGGNLTQDRAQVEMQGSR; assay: method not stated; Example 2, heading names cov434-AMHR-II cells and the epitope peptide
T3 peptide: GGGGNLTQDRAQVEMQGSR

[6] = biological target: T2, AMHRII receptor expressed on cells …; assay: cell-based or functional assay; remark: listed apart in the source
[7] = biological target: T2, AMHRII receptor expressed on cells …; assay: cell-based or functional assay; remark: listed apart in the source

Binder | Ratio AB invention/chimeric 12G4 [1] | Ratio AB invention/humanized 12G4 [1] | further results
B1 | 1.9 | 4.3 | –
B2 | 1.6 | 3.5 | –
B3 | 1.5 | 3 | –
B4 | 1.2 | 2.6 | –
B5 | – | – | KD chimeric/KD mutated [2]: 8.5; Kd [3]: 25 nM; koff [3]: 0.001 s⁻¹; kon [3]: 41000 M⁻¹ s⁻¹; EC50, ADCC on META 2815 cells [4]: 0.467 µg/mL
B6 | – | – | Kd [5]: 5260 nM; koff [5]: 0.00962 s⁻¹; kon [5]: 1830 M⁻¹ s⁻¹; % of lysis of ASC1 cells (ADCC with NK cells, LDH release) at 0.001 ng/ml antibody [6]: 0%; % of lysis of ASC1 cells (ADCC with NK cells, LDH release) at 0.005 ng/ml antibody [6]: 18%; % of lysis of ASC1 cells (ADCC with NK cells, LDH release) at 0.05 ng/ml antibody [6]: 2%; % of lysis of ASC1 cells (ADCC with NK cells, LDH release) at 0.5 ng/ml antibody [6]: 0%; % of lysis of ASC1 cells (ADCC with NK cells, LDH release) at 5 ng/ml antibody [6]: 7%; % of lysis of ASC1 cells (ADCC with NK cells, LDH release) at 50 ng/ml antibody [6]: 24%; % of lysis of ASC1 cells (ADCC with NK cells, LDH release) at 500 ng/ml antibody [6]: 50%; % of lysis of ASC1 cells (ADCC with NK cells, LDH release) at 5000 ng/ml antibody [6]: 50%; EC50 (ng/ml), ADCC on ASC1 cells [7]: 52.4 ng/mL; Emax (% of lysis), ADCC on ASC1 cells [7]: 52.4 % of lysis
B7 | – | – | KD chimeric/KD mutated [2]: 2.5; Kd [3]: 86 nM; koff [3]: 0.0043 s⁻¹; kon [3]: 50000 M⁻¹ s⁻¹
B8 | 1.1 | 2.2 | –
B9 | 0.8 | 1.7 | –
B10 | 1 | 2 | –
B11 | 1.3 | 1.5 | –
B12 | 1 | 2.1 | –
B13 | 0.8 | 2 | –
B14 | 1.1 | 2.6 | –
B15 | 0.8 | 1.6 | –
B16 | 1 | 2 | –
B17 | 0.8 | 1.7 | –
B18 | – | – | KD chimeric/KD mutated [2]: 2.6; Kd [3]: 81 nM; koff [3]: 0.0012 s⁻¹; kon [3]: 15000 M⁻¹ s⁻¹
B19 | 0.9 | 1.8 | –
